Measurements reported in publication PMC4373775.

Biological target: T1, ParB (Mycobacterium tuberculosis H37Rv) (UniProt P9WIJ9)
T1 sequence: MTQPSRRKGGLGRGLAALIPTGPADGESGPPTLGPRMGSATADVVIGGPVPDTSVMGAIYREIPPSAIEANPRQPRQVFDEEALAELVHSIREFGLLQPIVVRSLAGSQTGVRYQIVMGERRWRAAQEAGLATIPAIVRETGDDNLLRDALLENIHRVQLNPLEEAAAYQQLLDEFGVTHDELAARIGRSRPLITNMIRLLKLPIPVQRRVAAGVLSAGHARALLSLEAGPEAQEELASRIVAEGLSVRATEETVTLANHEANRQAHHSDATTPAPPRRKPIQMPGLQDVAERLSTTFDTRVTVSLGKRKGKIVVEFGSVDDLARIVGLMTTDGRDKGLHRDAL
Test: EMSA

Sequence: GCGAGTGGAGGGACGGCGTGAGTGCTCCGTGGGGCCCGGTGGCCGCTGGACCGTCCGCGCTCGTAAGGTCGGGCCAGGCTTCAACTATCGAACCATTCCAGCGGGAAATGACACCACCGACACCGACGCCTGAGGCCGCGCACAATCCGACGATGAATGTTTCACGTGAAACATCGACAGAATTCGACACCCCCATCGGCGCTGCAGCAGAACGTGCGATGCG (double strand) [parS probe]
- binding: binds
